Test results from PMC12277127.

Legend:
Details in all cases: protein: recombinant; tags: none left (N-terminal His removed by TEV); chain copies: 3; single strand
[1] = biological target: T1, SPRTN core (E112Q) (human, UniProt Q9H040 26-240, E112Q); experiment: ITC; no ubiquitin; N=0.36 ± 0.05; ITC: 50 mM HEPES pH 7.4, 50 mM NaCl, 0.5 mM TCEP-HCl, 25 °C, one-site model
T1 sequence: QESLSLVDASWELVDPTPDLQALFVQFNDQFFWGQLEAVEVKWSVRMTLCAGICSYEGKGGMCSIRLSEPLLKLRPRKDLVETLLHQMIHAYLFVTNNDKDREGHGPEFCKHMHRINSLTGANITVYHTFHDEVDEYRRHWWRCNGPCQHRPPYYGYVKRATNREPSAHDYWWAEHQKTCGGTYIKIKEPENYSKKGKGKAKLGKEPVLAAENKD

[2] = biological target: T1, SPRTN core (E112Q); experiment: ITC; with equimolar monoUb; N=0.36 ± 0.02; ITC: 50 mM HEPES pH 7.4, 50 mM NaCl, 0.5 mM TCEP-HCl, 25 °C, one-site model
[3] = biological target: T1, SPRTN core (E112Q); experiment: ITC; with equimolar M1-Ub4 (linear tetra-ubiquitin; ternary complex); N=0.29 ± 0.01; ITC: 50 mM HEPES pH 7.4, 50 mM NaCl, 0.5 mM TCEP-HCl, 25 °C, one-site model

## ACGCCTGAAGAGTCTGGTGA (ssDNA) [ssDNA (20 nt), Turner-20bp-F]
[1]
  Kd: 4.33 ± 0.98 µM
[2]
  Kd: 5.15 ± 1.36 µM
[3]
  Kd: 0.44 ± 0.03 µM
